{
  "source": "patent US20160376321A1",
  "about": "(BAYLOR COLLEGE OF MEDICINE, published 2016)",
  "binders": {"B1": {"name": "recombinant protein containing RBD of Middle East respiratory syndrome coronavirus (MERS-CoV) (other)", "chain": "QAEGVECDFSPLLSGTPPQVYNFKRLVFTNCNYNLTKLLSLFSVNDFTCSQISPAAIASNCYSSLILDYFSYPLSMKSDLSVSSAGPISQFNYKQSFSNPTCLILATVPHNLTTITKPLKYSYINKCSRFLSDDRTEVPQLVNANQYSPCVSIVPSTVWEDGDYYRKQLSPLEGGGWLVASGSTVAMTEQLQMGFGITVQYGTDTNSVCPKL"}},
  "biological_target": "soluble ACE2 (sACE2), containing 6xHis tag (R&D Systems) (human, UniProt Q9BYF1 18-740)",
  "experiment": "Ni-NTA pull-down with His-tagged sACE2, Western blot (FIG. 7B-C)",
  "data": [
    {"binder": "B1", "values": [
      {"measurement": "binding result", "value": "no binding (tested: 20 µg)"}
    ]}
  ]
}
